These results are taken from patent US12697368B2, “TSG6 polypeptide fragment for dry eye disease” (The University of Manchester, priority 2019, dated 2026).

Series [1] can be described thus: Solubility in PBS by UV spectrophotometry. It is filed as physicochemical. On the procedure:
(§1) The solubility and aggregation state of full-length TSG-6 and LINK_TSG6 in PBS were compared using UV spectrophotometry and dynamic light scattering (DLS) at a range of concentrations. […] The full-length protein had much lower solubility with less than 40% of the protein remaining in solution at 0.4, 0.8, 1.6. and 3.2 mg/ml.

Series [2] in a line: Aggregation state in PBS by dynamic light scattering (DLS). It counts as physicochemical. On the procedure: as §1
In a further series the test system is NOD.B10.H2b mice. The settings on record: recombinant TSG-6 (0.1%) topical 4 times a day, 1 week; vs 0.05% cyclosporine twice a day; cited from earlier work.
A further series deals with rat eyes. The settings on record: ethanol application and mechanical debridement; cited from earlier work.
The conditions of series [3]: interaction is cooperative; cited from earlier work.

As to “full-length TSG-6: full length human recombinant TSG-6 protein (R&D Systems), ~35 kDa secreted product of TNF-stimulated gene-6”, the “protein remaining in solution” value in series [1] (PBS, 0.4, 0.8, 1.6 and 3.2 mg/ml) is “less than 40%”. The “solubility and stability in solution” value in series [1] (general statement) was “insoluble and prone to aggregation”. For the same substance, the aggregation entry in series [2] (0.2, 0.4, 0.8, 1.6 and 3.2 mg/ml) is given as “highly aggregated”. In addition, in series [2] (1.6 and 3.2 mg/ml, DLS measurements out of range), the “size of aggregates formed” value is listed as “greater than 25 million”. For the same substance, the “efficacy in inflammation mediated dry eye compared with cyclosporine eye drops” value with NOD.B10.H2b mice was “as effective”. In the series on rat eyes, the “corneal opacity as compared to a PBS control” value is given as “reduced” and the “neovascularization as compared to a PBS control” value was “reduced”. The “binding to HA compared with LINK_TSG6” value in series [3] was “binds more effectively”.
